Paper PMC5734611 (Nature nanotechnology, 2016)

Target: the molecule itself
Experiment: high-speed atomic force microscopy

B1: bacterial glycerol uptake facilitator GlpF (natural protein)
chain: MSQTSTLKGQSIAEFLGTGLLIFFGVGSVAALKVAGASFGQWEISVIWGLGVAMAIYLTAGVSGAHLNPAVTIALWLFASFDKRKVIPFIVSQVAGAFSAAALVYGLYYNLFFDFEQTHHIVRGSVESVDLAGTFSTYPNPHINFVQAFAVEMVITAILMGLILALTDDGNGVPRGPLAPLLIGLLIAVIGASMGPLTGFAMNPARDFGPKVFAWLAGWGNVAFTGGRDIPYFLVPLFGPIVGAIVGAFAYRKLIGRHLPCDICVVEEKETTTPSEQKASL
modifications: Atto 488 maleimide on cysteines (C261 and C264)
For B1, the “stoichiometry N” value was 4.
